Laboratory results as given in paper PMC4932917, “Structural basis for acyl-group discrimination by human Gcn5L2” (Acta Crystallographica. Section D, Structural Biology, 2016).

Substrate: CC(=O)SCCNC(=O)CCNC(=O)[C@H](O)C(C)(C)COP(=O)(O)OP(=O)(O)OC[C@H]1O[C@@H](n2cnc3c(N)ncnc32)[C@H](O)[C@@H]1OP(=O)(O)O
Test: purified protein
Conditions: acyl-CoA site of the active site

B1: human Gcn5L2 (hsGcn5L2) (Homo sapiens) (protein)
chain: GIIEFHVIGNSLTPKANRRVLLWLVGLQNVFSHQLPRMPKEYIARLVFDPKHKTLALIKDGRVIGGICFRMFPTQGFTEIVFCAVTSNEQVKGYGTHLMNHLKEYHIKHNILYFLTYADEYAIGYFKKQGFSKDIKVPKSRYLGYIKDYEGATLMECELNPRIPYT
**Q.** For B1, which Km is on record?
**A.** Its Km is 0.91 ± 0.09 µM.
